The labels stand for the following.
B1: full-length AIM II (LIGHT) expressed on the cell surface (ligand)
chain: MEESVVRPSVFVVDGQTDIPFTRLGRSHRRQSCSVARVGLGLLLLLMGAGLAVQGWFLLQLHWRLGEMVTRLPDGPAGSWEQLIQERRSHEVNPAAHLTGANSSLTGSGGPLLWETQLGLAFLRGLSYHDGALVVTKAGYYYIYSKVQLGGVGCPLGLASTITHGLYKRTPRYPEELELLVSQQSPCGRATSSSRVWWDSSFLGGVVHLEAGEEVVVRVLDERLVRLRDGTRSYFGAFMV
B2: HVEM/TR2-Fc fusion protein (Fc fusion, UniProt Q92956 39-202, looked up)
chain: LPSCKEDEYPVGSECCPKCSPGYRVKEACGELTGTVCEPCPPGTYIAHLNGLSKCLQCQMCDPAMGLRASRNCSRTENAVCGCSPGHFCIVQDGDHCAACRAYATSSPGQRVQKGGTESQDTLCQNCPPGTFSPNGTLEECQHQTKCSWLVTKAGAGTSSSHWV
notes: not shown: Fc portion; detected with anti-human IgG
B3: lymphotoxin beta receptor (LTβR)-Fc fusion protein (Fc fusion, human, UniProt P36941 31-227, looked up)
chain: QAVPPYASENQTCRDQEKEYYEPQHRICCSRCPPGTYVSAKCSRIRDTVCATCAENSYNEHWNYLTICQLCRPCDPVMGLEEIAPCTSKRKTQCRCQPGMFCAAWALECTHCELLSDCPPGTEAELKDEVGKGNNHCVPCKAGHFQNTSSPSARCQPHTRCENQGLVEAAPGTAQSDTTCKNPLEPLPPEMSGTMLM
notes: extracellular domain; also called sLTβR-Fc; lymphotoxin-β receptor-Fc fusion protein; not shown: IgG1 Fc from vector pUC19-IgG1-Fc
B4: Flag-tagged soluble AIM II protein (sAIM II), amino acids 74-240 of AIM II (ligand)
chain: DGPAGSWEQLIQERRSHEVNPAAHLTGANSSLTGSGGPLLWETQLGLAFLRGLSYHDGALVVTKAGYYYIYSKVQLGGVGCPLGLASTITHGLYKRTPRYPEELELLVSQQSPCGRATSSSRVWWDSSFLGGVVHLEAGEEVVVRVLDERLVRLRDGTRSYFGAFMV
notes: also called sLIGHT; AIM II-Flag; not shown: N-terminal FLAG peptide tag from vector pFLAG.CMV-1 (behind the preprotrypsin signal peptide)
B5: natural processed form of AIM II purified from conditioned media of MCA-38 cells transfected with full length AIM II cDNA (residues 83-240) (ligand)
chain: LIQERRSHEVNPAAHLTGANSSLTGSGGPLLWETQLGLAFLRGLSYHDGALVVTKAGYYYIYSKVQLGGVGCPLGLASTITHGLYKRTPRYPEELELLVSQQSPCGRATSSSRVWWDSSFLGGVVHLEAGEEVVVRVLDERLVRLRDGTRSYFGAFMV
notes: apparent mass about 21 kDa, said to be consistent with glycosylation; also called MCA-38 AIM II; AIM II (aa 83-240)

In assay [1] the target is T1, TR6-(His), recombinant TR6 protein with hexa-histidine at the C-terminus (human, UniProt O95407 30-300).
T1 construct: also called DcR3; TR6 (DcR3)
T1 sequence: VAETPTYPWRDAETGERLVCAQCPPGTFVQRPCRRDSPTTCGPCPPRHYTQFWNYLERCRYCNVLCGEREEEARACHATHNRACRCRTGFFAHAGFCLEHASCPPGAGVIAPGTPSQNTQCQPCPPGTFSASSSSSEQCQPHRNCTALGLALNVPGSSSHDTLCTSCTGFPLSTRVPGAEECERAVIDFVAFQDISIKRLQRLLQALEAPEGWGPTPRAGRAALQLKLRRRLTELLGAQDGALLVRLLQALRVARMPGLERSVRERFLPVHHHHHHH
In words: flow cytometry on AIM II (LIGHT)-transfected HEK 293 EBNA cells, anti-poly(His)6 and FITC anti-mouse IgG. The protocol: (§1) After selection with Hygromycin B, cells were harvested with 1 mM EDTA in PBS and incubated with TR6-(His), HVEM/TR2-Fc, or LTβR-Fc for 20 minutes on ice. For detecting Fc-fusion protein, cells were stained with FITC-conjugated goat anti-human IgG. To detect TR6 binding, cells were stained with anti-poly(His)_6 and FITC conjugated goat anti-mouse IgG consecutively. The cells were analyzed by FACScan (Becton Dickinson).
(§2) These bindings indicate that TR6 can bind to both soluble and membrane-bound forms of AIM II (LIGHT).
A general note: A flow cytometer gives signals particle by particle.

Assay [2] concerns the target B1. In words: flow cytometry on AIM II (LIGHT)-transfected HEK 293 EBNA cells, FITC anti-human IgG. On the procedure: as §1, §2
Assay [3] deals with T2, BAP-Flag (negative control) (UniProt P00634 22-471 = phosphatase).
T2 construct: Tested as conditioned serum-free medium of transfected CHO cells
T2 sequence (P00634 22-471): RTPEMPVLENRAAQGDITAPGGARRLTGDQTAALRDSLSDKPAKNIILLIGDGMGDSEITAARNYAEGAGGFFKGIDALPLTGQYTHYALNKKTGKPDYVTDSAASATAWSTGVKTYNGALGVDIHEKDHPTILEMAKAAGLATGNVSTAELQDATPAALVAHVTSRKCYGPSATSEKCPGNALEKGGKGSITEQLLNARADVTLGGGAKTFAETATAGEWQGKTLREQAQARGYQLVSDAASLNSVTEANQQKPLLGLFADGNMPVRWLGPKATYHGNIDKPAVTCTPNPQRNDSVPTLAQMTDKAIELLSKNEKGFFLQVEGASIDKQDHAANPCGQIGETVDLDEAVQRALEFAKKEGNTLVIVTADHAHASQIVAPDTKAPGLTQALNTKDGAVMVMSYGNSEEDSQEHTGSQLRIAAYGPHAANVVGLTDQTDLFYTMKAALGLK
In words: BIAcore, LTβR-Fc immobilized, conditioned serum-free media of CHO cells. On the procedure:
(§3) CHO cells were transfected with either an AIM II-Flag tag expression vector or an BAP-Flag (negative control). Three days after transfection, AIM II expression was determined using the BIAcore instrument (BIAcore, Inc.) which permits real-time measurements of protein binding events to immobilized AIM II receptor, lymphotoxin-β receptor (BIAcore sensorgram detects binding by changes in refractive index at the surface of the flow cell). A lymphotoxin-β receptor-Fc fusion protein was covalently immobilized to the BIAcore flow cell via amine groups using N-ethyl-N'-(dimethylaminopropyl)carbodiimide/N-hydroxysuccinimide chemistry. Various dilutions of AIM II-Flag and the negative control (BAP-Flag) conditioned serum-free media were applied to the lymphotoxin-β-receptor-derivatized flow cell at 5 µl/min for a total volume of 50 µl. The amount of bound protein was determined after washing the flow cell with HBS buffer (10 mM HEPES, pH 7.4, 150 mM NaCl, 3.4 mM EDTA, 0.005% Surfactant P20). The flow cell surface was regenerated by displacing bound protein by washing with 20 µl of 10 mM HCl.
Background: SPR reads the build-up and loss of mass on a sensor chip optically.

The target of assay [4] is T3, DR4 (UniProt O00220 24-239, limits assumed).
T3 construct: also called TRAIL-R1; APO-2
T3 sequence (looked up): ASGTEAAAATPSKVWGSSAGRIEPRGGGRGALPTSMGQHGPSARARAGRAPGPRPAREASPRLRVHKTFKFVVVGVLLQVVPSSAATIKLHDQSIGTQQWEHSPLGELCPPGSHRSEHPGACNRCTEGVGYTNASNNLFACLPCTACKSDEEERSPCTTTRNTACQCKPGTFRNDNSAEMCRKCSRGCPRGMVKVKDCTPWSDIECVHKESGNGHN
The assay can be described thus: in vitro binding assay, not described.

In assay [5] the target is T4, DR5 (UniProt O14763 56-210, limits assumed).
T4 construct: also called TRAIL-R2
The assay can be described thus: in vitro binding assay, not described.

Assay [6] addresses B2. The assay can be described thus: FACS competition, TR2-Fc at 10 µg/ml preincubated with sAIM II. On the procedure:
Cells were collected by trypsinization or aspiration, and centrifuged at 1500–2000 rpm for 5 min. The cell pellets were resuspended and washed in 5 ml ice-cold PBS twice. And then, the cells were incubated with Flag-tagged AIM II protein or Abs at 10 μg/ml in the binding buffer (HBSS containing 10% BSA, 20 mM HEPES, pH 7.2, 0.02% NaN₃, and 25 μg/ml normal rat Ig) for 30 min at 4° C. Cells were then washed and stained with phycoerythrin (PE) conjugated to goat anti-mouse IgG at 20 μg/ml as described. To compete for cell surface binding, soluble LTβR-Fc fusion protein, TR2-Fc at 10 μg/ml was preincubated with AIM II for 30 min before adding to cells. Fluorescence was analyzed by a FACscan flow cytometer (Becton Dickinson, Mountain View, Calif.).

For assay [7], the target named is T1, TR6-(His), recombinant TR6 protein with …. In words: summary of the experiments of Example 13.
The target of assay [8] is B3. The assay can be described thus: BIAcore, LTβR-Fc immobilized by amine coupling, CHO conditioned serum-free media. On the procedure: as §3
The target of assay [9] is T5, TR2 on the surface of MDA-MB-231 and HT-29 cells and of T cells (human, UniProt Q92956 39-283).
T5 construct: whole, on cells; The tumour cells carry both LTβR and TR2; also called HVEM; ATAR
T5 sequence (looked up): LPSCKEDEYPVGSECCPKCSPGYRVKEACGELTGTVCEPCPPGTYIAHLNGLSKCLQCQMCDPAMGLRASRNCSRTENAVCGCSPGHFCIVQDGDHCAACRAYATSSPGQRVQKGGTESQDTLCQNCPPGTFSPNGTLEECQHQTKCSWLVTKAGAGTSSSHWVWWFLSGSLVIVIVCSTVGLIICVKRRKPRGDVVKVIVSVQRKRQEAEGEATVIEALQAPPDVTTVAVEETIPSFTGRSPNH
The assay can be described thus: summary of the FACS and cytotoxicity experiments. On the procedure: (§4) FIGS. 8A–8M. Cell surface expression of the LTβR or TR2 by the FACS analyses using LTβR (FIGS. 8A–8D) or TR2 (FIGS. 8E–8H) mAb. […] FACS binding analyses of soluble AIM II protein alone (FIG. 8I) and blocking of a soluble AIM II protein binding by preincubation with the LTβR-Fc fusion protein (FIG. 8J) or TR2-Fc fusion protein (FIG. 8K) in MDA-MB-231 cells. FIG. 8L summarizes the surface expression of LTβR and TR2 in various cell lines. Effects of LTβR-Fc or TR2-Fc fusion protein to block the sAIM II-mediated cytotoxicity in HT-29 cells (FIG. 8M). […] Cells were incubated for five days and the viability of cells was determined by XTT assays.
(§5) A soluble tetrazolium/formazan (XTT) assay for cell growth in a 96-well plate was performed. Cells (2,000–4,000 cells/well) were grown in IMEM medium with 10% FBS or 1% FBS. After four to five days culture, XTT (1.0 mg/ml plus PMS at 1.53 mg/ml) was added to each well and incubated for four hours at 37° C. Absorbance at 450 nm was measured with the Dynatech Model MR700.
(§6) Cells were collected by trypsinization or aspiration, and centrifuged at 1500–2000 rpm for 5 min. The cell pellets were resuspended and washed in 5 ml ice-cold PBS twice. […] Fluorescence was analyzed by a FACscan flow cytometer (Becton Dickinson, Mountain View, Calif.).

Assay [10] addresses T6, LTβR on the surface of MDA-MB-231 and HT-29 cells (human, UniProt P36941 31-435).
T6 construct: whole, on cells; The cells carry both LTβR and TR2; also called lymphotoxin β receptor
The assay can be described thus: summary of the FACS and cytotoxicity experiments. The protocol:
as §4, §5, §6

For assay [11], the target named is T7, DR3 (UniProt Q93038 25-199, limits assumed).
T7 construct: also called TRAMP; APO-3
T7 sequence (looked up): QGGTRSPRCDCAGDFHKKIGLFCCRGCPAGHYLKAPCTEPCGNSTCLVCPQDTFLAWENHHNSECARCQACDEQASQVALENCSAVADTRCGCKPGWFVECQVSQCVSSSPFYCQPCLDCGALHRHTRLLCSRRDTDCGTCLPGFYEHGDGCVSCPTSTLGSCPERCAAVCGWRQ
In words: 'in a similar assay'; format not described.

Assay [12] addresses T8, TNFRI (UniProt P19438 30-211, limits assumed).
T8 construct: also called TNFR1
T8 sequence (looked up): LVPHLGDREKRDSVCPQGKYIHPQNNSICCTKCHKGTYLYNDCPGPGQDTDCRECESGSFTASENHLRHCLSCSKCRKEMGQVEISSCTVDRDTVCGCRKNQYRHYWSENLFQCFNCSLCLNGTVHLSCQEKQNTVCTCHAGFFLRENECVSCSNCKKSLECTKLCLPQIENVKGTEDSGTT
The assay can be described thus: 'in a similar assay'; format not described.

In assay [13] the target is T9, Fas (UniProt P25445 26-173, limits assumed).
T9 construct: also called CD95; APO-1
T9 sequence (looked up): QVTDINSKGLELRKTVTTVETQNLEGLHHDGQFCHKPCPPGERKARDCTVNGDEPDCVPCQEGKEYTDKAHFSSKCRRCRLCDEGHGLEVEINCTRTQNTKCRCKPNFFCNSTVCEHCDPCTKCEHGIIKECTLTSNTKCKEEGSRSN
The assay can be described thus: 'in a similar assay'; format not described.

Assay [14] concerns the target B3. The assay can be described thus: LTβR-Fc affinity column, eluate tested on LTβR BIAcore chip; band of about 21 kDa specifically bound to the column. On the procedure:
Conditioned media from the stable transfectants, CHO11 or MCA-38 cells, were filtered, centrifuged at 10,000×g and then passed over an MCIF-Fc affinity column (control column) followed by the LTβR-Fc affinity column (0.2 mL bed volume). The columns were washed with several bed column volumes HEPES buffered saline containing 0.005% Surfactant P-20. Bound protein was eluted with 10 mM HCl (3×0.5 ml fractions) and immediately neutralized with TRIS buffer. The fractions eluted from the LTβR column retained binding to LTβR BIAcore chip, whereas, fractions eluted from the control MCIF-Fc column were negative for binding. The eluted fractions were dried in Spedvac then resuspended in 20 μl water. An aliquot of the eluted protein was analyzed by reducing SDS-PAGE gels and detected by silver staining. A band of approximately ~25 kDa and ~21 kDa was detected specifically bound to the LTβR column from CHO-11 and MCA-38 cell lines. The remaining eluted material was subject to SDS-PAGE and blotted onto PVDF membrane for N-terminal sequence analysis.

Data on 5 molecules can be found in patent US6635743.

For the molecule B1, the binding result in [1] is listed as “binds”.

With B2, in [2], the binding result is given as “binds”.

Turning to B3, the binding result is given as “binds” in assay [2] and “no binding” in [3].

As to B4, the binding result is “no binding” in assay [4]; “no binding” in [5]; “binds” in assay [6]; “binds” in assay [7]; “binds” in [8]; “binds” in assay [9]. The binding result is “binds” in [10], “no binding” in assay [11], “no binding” in assay [12] and “no binding” in assay [13].

Regarding B5, the binding result in assay [14] is “binds”.
